In patent US20180051064A1 (AJOU UNIVERSITY INDUSTRY ACADEMIC COOPERATION FOUNDATION, published 2018):
Where no end group is shown, it is not given here. Fc = antibody heavy-chain constant region Fc (hinge-CH2-CH3)

Assays:
[1] = molecular target: T1, NRP1-b1b2 (273-586) protein (UniProt O14786 273-586); test: ELISA on immobilised NRP1-b1b2, absorbance at 405 nm [A]
T1 construct: range 273-586; Prepared according to Appleton et al. 2007; Biotinylated (Sulfo-NHS-LC-biotin) for the yeast display FACS; unlabelled in ELISA and SPR; also called neuropilin-1 b1b2 protein; biotinylated NRP1-b1b2
Experimental: (§1) 1 μg of each of NRP1-b1b2 (273-586) protein, NRP2-b1b2 (275-595) protein and the control group VEGFR2 (46-753) was immobilized in each well of a 96-well EIA/RIA plate (COSTAR Corning In., USA) at room temperature for 1 hour, and then washed three times with 0.1% PBST (0.1% Tween20, pH 7.4, 137 mM NaCl, 10 mM Phosphate, 2.7 mM KCl, SIGMA-ALDRICH co., USA) for 10 minutes. After binding with 5% skim milk (5% Skim milk, pH 7.4, 137 mM NaCl, 10 mM Phosphate, 2.7 mM KCl, SIGMA-ALDRICH co., USA) for 1 hour, each well was washed three times with 0.1% PBST (0.1% Tween20, pH 7.4, 137 mM NaCl, 10 mM Phosphate, 2.7 mM KCl, SIGMA-ALDRICH co., USA) for 10 minutes. […] Each well was bound with AP-conjugated anti-biotin antibody (alkaline phosphatase-conjugated anti-biotin mAb, Sigma, USA), and then reacted with pNPP ([…], SIGMA-ALDRICH co., USA), and the absorbance at 405 nm was measured.

[2] = molecular target: T2, NRP2-b1b2 (275-595) protein (UniProt O60462 275-595); test: SPR (Biacore 2000), NRP2-b1b2 immobilised on CM5 chip
T2 construct: range 275-595; also called neuropilin-2 b1b2 protein
T2 sequence (looked up): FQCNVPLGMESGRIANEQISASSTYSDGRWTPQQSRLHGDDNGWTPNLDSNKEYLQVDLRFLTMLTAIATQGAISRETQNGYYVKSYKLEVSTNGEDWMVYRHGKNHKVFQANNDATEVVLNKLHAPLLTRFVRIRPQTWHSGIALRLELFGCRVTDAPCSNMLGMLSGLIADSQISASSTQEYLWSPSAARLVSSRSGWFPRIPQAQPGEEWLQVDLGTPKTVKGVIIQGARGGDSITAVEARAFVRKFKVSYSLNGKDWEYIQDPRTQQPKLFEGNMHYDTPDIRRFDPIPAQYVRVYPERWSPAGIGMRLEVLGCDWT
Experimental: (§2) Specifically, each of NRP1 and NRP2 b1b2 proteins was diluted in 10 mM Na-acetate buffer (pH 4.0), and immobilized on a CM5 sensor chip (GE healthcare, USA) at about 1000 response units (RU). […] After binding and dissociation analysis, regeneration of the CM5 chip was performed by flushing buffer (20 mM NaOH, 1M NaCl, pH10.0) at a flow rate of 30 μl/min for 1 minute.

[3] = molecular target: T1, NRP1-b1b2 (273-586) protein; test: SPR; KD on NRP2-b1b2 divided by KD on NRP1-b1b2
Experimental: as §2

[4] = molecular target: T1, NRP1-b1b2 (273-586) protein; test: SPR (Biacore 2000), NRP1-b1b2 immobilised on CM5 chip
Experimental: as §2

[5] = molecular target: T1, NRP1-b1b2 (273-586) protein; test: SPR; lower end tied to Fc-TPP8 by Table 5 (65.8)
Experimental: as §2

[6] = molecular target: T1, NRP1-b1b2 (273-586) protein; test: competitive ELISA on NRP1-b1b2; TPP11 peptide varied, blocked ligand RPARPAR [10 µM], relative binding (%) [B]
[7] = molecular target: T1, NRP1-b1b2 (273-586) protein; test: ELISA, biotinylated peptide (100 nM) on coated NRP1-b1b2
Experimental: as §1

T1 sequence (O14786 273-586 limits assumed, form in doubt): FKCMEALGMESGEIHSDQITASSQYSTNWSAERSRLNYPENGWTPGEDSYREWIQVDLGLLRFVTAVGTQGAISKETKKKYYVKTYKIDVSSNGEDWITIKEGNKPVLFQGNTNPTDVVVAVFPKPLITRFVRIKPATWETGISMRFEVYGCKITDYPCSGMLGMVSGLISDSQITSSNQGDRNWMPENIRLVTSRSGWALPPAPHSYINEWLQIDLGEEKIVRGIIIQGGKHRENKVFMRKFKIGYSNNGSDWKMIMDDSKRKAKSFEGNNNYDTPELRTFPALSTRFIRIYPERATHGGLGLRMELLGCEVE

Row | EC50 (read off the curve) [1] [nM] | Kd [2] [nM] | Binding Affinity Ratio [(KD for NRP2)/KD for NRP1)] [3] | Kd [4] [nM] | fold higher affinity for NRP1 than for NRP2 [5] [fold] | IC50 (read off the curve) [6] [nM] | fold lower affinity than Fc-TPP11 [7] [fold] | Binder
1 | ~3 | 254 | 65.8 | 3.85 | 60 |  |  | Fc-GGGGSGGGGSGGGGSHTPGIATRTPR (Fc fusion, not shown: a dimerising Fc or GST; small tags and cut ends, also: Fc letters not given here, disulfide-linked homodimer through Fc hinge, Expressed in HEK293-F and purified on Protein A; disulfide-linked dimer) [Fc-TPP8 fusion protein]
2 | ~0.5 | 1130 | 625 | 1.81 |  |  |  | Fc-GGGGSGGGGSGGGGSHTPGNSNQFVLTSTRPPR (Fc fusion, not shown: a dimerising Fc or GST; small tags and cut ends, also: Fc letters not given here, disulfide-linked homodimer through Fc hinge, Expressed in HEK293-F and purified on Protein A; disulfide-linked dimer) [Fc-TPP1 fusion protein]
3 |  |  |  |  |  | ~2000 | 100 | HTPGNSKPTRTPRR (also: biotinylated for ELISA, position not given here, also called TPP11 peptide; synthesized TPP11 peptide) [synthetic peptide TPP11 not fused to Fc]
